Source: US20190150137A1

Tests used:
[1] = target: ClfAD327C/K541C (ClfA(229-545)D327C/K541C, disulfide-stabilized closed conformation) (Staphylococcus aureus strain Newman) (UniProt Q2G015); test: ITC, peptide titrated into ClfAD327C/K541C; panel assigned by the legend paragraph 25 (bovine Fg γ peptide has the lower affinity)
[2] = target: GST-Fg γ^1-17 (GST fusion protein containing the native human Fg γ 395-411 sequence) (human); test: ELISA-type assay, ligand coated, apparent Kd
[3] = target: GST-Fg g^1-17D16A (GST fusion of the Fg γ 395-411 sequence with D16A) (human); test: solid-phase binding assay, wells coated with GST-γ1-17 D16A, anti-His detection, A405

Substance | Kd [1] | Kd [2] | EC50 (read off the curve) [3]
bovine Fg γ peptide (peptide representing the bovine Fg γ chain sequence) (from UniProt P12799 420-436) | 20900 nM |  | 
ClfAD327C/K541C (ClfA(229-545)D327C/K541C, disulfide-stabilized closed conformation) (from UniProt Q2G015 229-545) |  | 20 nM | 
ClfA229-545 (recombinant His-tagged N2N3 segment of Staphylococcus aureus clumping factor A) (from UniProt Q2G015 229-545) |  | 222 nM | 200 nM
